Results: PMC5760745, “Nuclear, Cytosolic, and Surface-Localized Poly(A)-Binding Proteins of Plasmodium yoelii”

Columns and labels:
[1] = target: T1, PyPABP1 (Plasmodium yoelii 17XNL, UniProt V7PUC0 1-841); test: fluorescence polarization; apparent Kd; excess tRNA, 5 mM Mg2+; EMSA/FP: 10 mM Tris-Cl pH 7.5, 5 mM MgCl2, 55 mM KCl, 2 ug tRNA, 1 mM DTT, 0.5 U/ul SUPERase-In, 2.5% glycerol, RT 20 min; ITC: 10 mM HEPES pH 7.5, 100 mM KCl; details: protein: recombinant; tags: N-terminal GST (thrombin-cleavable), C-terminal 6xHis (TEV-cleavable); single strand
T1 sequence: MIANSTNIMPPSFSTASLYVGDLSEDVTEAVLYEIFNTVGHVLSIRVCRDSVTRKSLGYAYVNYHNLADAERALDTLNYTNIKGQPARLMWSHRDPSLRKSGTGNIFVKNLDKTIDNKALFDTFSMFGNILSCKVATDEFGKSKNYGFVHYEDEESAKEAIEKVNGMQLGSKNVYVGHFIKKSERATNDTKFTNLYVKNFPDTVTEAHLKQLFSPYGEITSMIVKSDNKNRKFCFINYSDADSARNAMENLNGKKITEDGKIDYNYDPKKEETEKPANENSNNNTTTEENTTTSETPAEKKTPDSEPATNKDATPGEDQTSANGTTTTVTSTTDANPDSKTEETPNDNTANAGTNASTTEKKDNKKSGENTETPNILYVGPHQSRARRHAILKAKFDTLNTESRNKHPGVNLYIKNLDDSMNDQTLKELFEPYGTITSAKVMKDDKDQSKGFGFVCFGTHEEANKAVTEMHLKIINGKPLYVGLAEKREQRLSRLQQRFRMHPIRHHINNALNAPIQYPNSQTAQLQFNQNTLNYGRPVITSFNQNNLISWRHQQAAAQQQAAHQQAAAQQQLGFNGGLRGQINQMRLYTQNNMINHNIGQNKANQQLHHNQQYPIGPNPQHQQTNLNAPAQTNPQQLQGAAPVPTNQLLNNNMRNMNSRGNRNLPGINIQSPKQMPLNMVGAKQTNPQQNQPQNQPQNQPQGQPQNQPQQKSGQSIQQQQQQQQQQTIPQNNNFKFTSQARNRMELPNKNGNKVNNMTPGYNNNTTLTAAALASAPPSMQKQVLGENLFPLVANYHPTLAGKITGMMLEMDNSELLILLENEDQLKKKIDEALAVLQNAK

[2] = target: T2, PyPABP2 (Plasmodium yoelii, UniProt UPI0004EF7F20 1-199); test: as above; details: protein: recombinant; tags: N-terminal GST (purified via GST); vector pSL0220 also encodes C-terminal 6xHis; single strand
T2 sequence: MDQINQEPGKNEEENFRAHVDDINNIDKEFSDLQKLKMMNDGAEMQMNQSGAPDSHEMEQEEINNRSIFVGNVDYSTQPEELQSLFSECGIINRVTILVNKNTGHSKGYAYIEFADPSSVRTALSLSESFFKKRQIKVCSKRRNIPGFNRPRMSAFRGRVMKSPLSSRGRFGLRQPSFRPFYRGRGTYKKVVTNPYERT

[3] = target: T1, PyPABP1; test: EMSA; apparent Kd; excess tRNA, 5 mM Mg2+; EMSA/FP: 10 mM Tris-Cl pH 7.5, 5 mM MgCl2, 55 mM KCl, 2 ug tRNA, 1 mM DTT, 0.5 U/ul SUPERase-In, 2.5% glycerol, RT 20 min; ITC: 10 mM HEPES pH 7.5, 100 mM KCl; details: protein: recombinant; tags: N-terminal GST (thrombin-cleavable), C-terminal 6xHis (TEV-cleavable); single strand
[4] = target: T2, PyPABP2; test: as above; details: protein: recombinant; tags: N-terminal GST (purified via GST); vector pSL0220 also encodes C-terminal 6xHis; single strand
[5] = target: T1, PyPABP1; test: ITC; 5 mM Mg2+; first of two protein preparations; EMSA/FP: 10 mM Tris-Cl pH 7.5, 5 mM MgCl2, 55 mM KCl, 2 ug tRNA, 1 mM DTT, 0.5 U/ul SUPERase-In, 2.5% glycerol, RT 20 min; ITC: 10 mM HEPES pH 7.5, 100 mM KCl; details: protein: recombinant; tags: N-terminal GST (thrombin-cleavable), C-terminal 6xHis (TEV-cleavable); single strand
[6] = target: T1, PyPABP1; test: ITC; 5 mM Mg2+; second of two protein preparations; EMSA/FP: 10 mM Tris-Cl pH 7.5, 5 mM MgCl2, 55 mM KCl, 2 ug tRNA, 1 mM DTT, 0.5 U/ul SUPERase-In, 2.5% glycerol, RT 20 min; ITC: 10 mM HEPES pH 7.5, 100 mM KCl; details: protein: recombinant; tags: N-terminal GST (thrombin-cleavable), C-terminal 6xHis (TEV-cleavable); single strand

AAAAAAAAAAAAAAAAAAAAAAAAA (ssRNA) [fluorescein-poly(A) 25-mer]
Kd [1]: 8 nM | Kd [2]: 104 nM

AAAAAAAAAAAAAAAAAAAAAAAAA (ssRNA) [biotin-poly(A) 25-mer]
Kd [3]: 185 nM | Kd [4]: 108 nM

AAAAAAAAAAAAAAAAAAAAAAAAA (ssRNA) [poly(A) 25-mer]
Kd [5]: 33 nM | Kd [6]: 48 nM
